“And” between values parts separate entries of the source, which are not always exact repeats. Equal values may be shown once.

The values that follow come from doi:10.1101/431494, “Conservation of the structural and functional architecture of encapsulated ferritins in bacteria and archaea” (bioRxiv, 2018).

Data set [1] concerns the molecule itself. Briefly: native MS; nano-ESI, 100 mM ammonium acetate pH 8.0, ~5 uM (oligomer concentration).
Data set [2] deals with the molecule itself. Briefly: SEC; analytical size-exclusion chromatography, Superdex 200 16/60, 50 mM Tris-HCl pH 8.0, 150 mM NaCl, calibrated with standards of known molecular weight. (SEC sorts molecules by how far they enter the pores of the column.)
Data set [3] deals with the molecule itself. Nature of the data set: SDS-PAGE (resistance of oligomers to SDS and heat denaturation); SDS-PAGE of the size-exclusion peak fractions.
Data set [4] concerns the molecule itself. Briefly: crystal structure; sitting drop vapour diffusion; Hoch_EncFtn in 0.2 M NaCl, 0.1 M Bis-Tris pH 5.5, 20 % PEG 3350; Pfc_EncFtn in 0.2 M LiSO4, 20 % PEG 3350; molecular replacement with PDB 5DA5.

B1: Rhodospirillum rubrum encapsulated ferritin, hexahistidine-tagged variant (natural protein, UniProt Q2RVS1 1-140, looked up)
chain: MAQSSNSTHEPLEVLKEETVNRHRAIVSVMEELEAVDWYDQRVDASTDPELTAILAHNRDEEKEHAAMTLEWLRRNDAKWAEHLRTYLFTEGPITAIEAADTAGEGSGGDAAKGATAQGDGSLGIGSLKGEAALARPPRL
As for B1, in data set [1], the stoichiometry N (usually the number of molecules, sites or subunits per partner or assembly) is 10.

B2: Rhodospirillum rubrum encapsulated ferritin, Strep-tagged variant (natural protein, UniProt Q2RVS1 1-140, looked up)
chain: B1 chain
notes: source: recombinant, purified by Strep-Trap column HP
As for B2, the “stoichiometry N” value in data set [2] is 10.

B3: Pyrococcus furiosus encapsulated ferritin domain, residues 1-99, C-terminal StrepII-tagged variant (domain or fragment, UniProt Q8U1L4 1-99, looked up)
chain: MLSINPTLINRDKPYTKEELMEILRLAIIAELDAINLYEQMARYSEDENVRKILLDVAREEKAHVGEFMALLLNLDPEQVTELKGGFEEVKELTGIEAH
notes: EncFtn domain (residues 1-99) of the single contiguous EncFtn-encapsulin polypeptide of Pyrococcus furiosus; locus tag printed as Pfc_01575, Pfc_05157 and Pfc_05175; source: E. coli BL21(DE3), purified (Strep-Trap HP); not shown: StrepII, C-terminal, kept
On to B3, for which the “stoichiometry N” value was 10 and ~20 in data set [2]; 2 in data set [3].

B4: Pyrococcus furiosus encapsulated ferritin domain as crystallised (PDB 5N5E) (domain or fragment, UniProt Q8U1L4 1-99, looked up)
chain: B3 chain
notes: EncFtn domain (residues 1-99) of the single contiguous EncFtn-encapsulin polypeptide of Pyrococcus furiosus; electron density visible for residues 2-98 in each chain; source: E. coli BL21(DE3), purified; copies: 10
Consider B4, for which, in data set [4], the “stoichiometry N” value was 10.

B5: Pyrococcus furiosus encapsulated ferritin domain, residues 1-99, C-terminal hexahistidine tagged variant (domain or fragment, UniProt Q8U1L4 1-99, looked up)
chain: B3 chain
notes: EncFtn domain (residues 1-99) of the single contiguous EncFtn-encapsulin polypeptide of Pyrococcus furiosus; locus tag printed as Pfc_01575, Pfc_05157 and Pfc_05175; source: E. coli BL21(DE3), purified (HisTrap FF, S200 size-exclusion chromatography); not shown: His6, C-terminal, kept
For B5, the figures for the “stoichiometry N” value in data set [2] and in data set [1] were around 10 and 10, respectively.
